In data set [1] the target is T1, LIN28A (UniProt Q9H9Z2).
T1 sequence: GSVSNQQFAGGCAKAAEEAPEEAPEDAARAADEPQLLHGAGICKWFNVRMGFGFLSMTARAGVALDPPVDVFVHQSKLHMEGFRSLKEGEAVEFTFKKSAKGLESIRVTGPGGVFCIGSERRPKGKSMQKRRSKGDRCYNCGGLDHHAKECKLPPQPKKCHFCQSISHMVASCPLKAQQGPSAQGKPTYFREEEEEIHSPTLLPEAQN
Put plainly: EMSA. The following applies: higher-order aggregates above 50 nM. A general note: Mobility shift assays separate free from complexed probe on a gel.

Data set [2] deals with T1, LIN28A. Put plainly: filter. The following applies: transition between unbound and bound at ~10 nM; aggregates retained on PES at 50 nM and above.

The pKd is the negative decadic logarithm of the Kd, by convention in mol/L. Low readings indicate a large Kd, high ones a small Kd.

pKd: −log10 of the molar value.

As for pre-let-7a miRNA, the pKd is 7.60 with LIN28A [1] and 8.00 in the data set with LIN28A [2].

The values above are taken from patent publication US20240336918.
